B1: FUT8 (parent)
chain: YPSYKVREKIETVKYPTYPEAEK

Variants of: B1
Assay: protein stability index of a GFP-peptide fusion (GPS, HEK-293T) (PSI 1-6); higher = more stable
Conditions: c terminus: native
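Further: lentivirally expressed fusions sorted by FACS into six bins by GFP to DsRed ratio, PSI derived from sequencing read proportions per bin multiplied by bin number.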

| Variant | protein stability index |
| --- | --- |
| YPSYKVREKIETVKYPTYPEARK [E22R] | 4.2 |
| YPSYKVREKIETVKYPTYPEATK [E22T] | 3.32 |
| YPSYKVREKIETVKYPTYPEADK [E22D] | 4.31 |
| YPSYKVREKIETVKYPTYPEAIK [E22I] | 2.17 |
| YPSYKVREKIETVKYPTYPRAEK [E20R] | 3.63 |
| YPSYKVREKIETVKYPTYPVAEK [E20V] | 3.48 |
| YPSYKVREKIETVKYPTYPSAEK [E20S] | 3.56 |
| YPSYKVREKIETVKYPTYPIAEK [E20I] | 2.88 |
| YPSYKVREKIETVKYPTYPCAEK [E20C] | 3.33 |
| YPSYKVREKIETVKYPTYPTAEK [E20T] | 3.87 |
| YPSYKVREKIETVKYPTYPWAEK [E20W] | 2.9 |
| YPSYKVREKIETVKYPTYPLAEK [E20L] | 3.5 |
| YPSYKVREKIETVKYPTYPAAEK [E20A] | 3.93 |
| YPSYKVREKIETVKYPTYPFAEK [E20F] | 3.39 |
| YPSYKVREKIETVKYPTYPGAEK [E20G] | 4.26 |
| YPSYKVREKIETVKYPTYPKAEK [E20K] | 4.69 |
| YPSYKVREKIETVKYPTYPDAEK [E20D] | 4.62 |
| YPSYKVREKIETVKYPTYPQAEK [E20Q] | 3.61 |
| YPSYKVREKIETVKYPTYPHAEK [E20H] | 3.97 |
| YPSYKVREKIETVKYPTYPYAEK [E20Y] | 3.52 |
| YPSYKVREKIETVKYPTYPNAEK [E20N] | 4.41 |
| YPSYKVREKIETVKYPTYPMAEK [E20M] | 3.55 |
| YPSYKVREKIETVKYPTYPEAEE [K23E] | 1.93 |
| YPSYKVREKIETVKYPTYPEAEI [K23I] | 4.41 |

| Variant | protein stability index |
| --- | --- |
| YPSYKVREKIETVKYPTYPEAER [K23R] | 1.82 |
| YPSYKVREKIETVKYPTYPEAEN [K23N] | 3.95 |
| YPSYKVREKIETVKYPTYPEAEL [K23L] | 3 |
| YPSYKVREKIETVKYPTYPEAEW [K23W] | 2.53 |
| YPSYKVREKIETVKYPTYPEAES [K23S] | 3.46 |
| YPSYKVREKIETVKYPTYPEAED [K23D] | 4.61 |
| YPSYKVREKIETVKYPTYPEAEG [K23G] | 3.96 |
| YPSYKVREKIETVKYPTYPEAET [K23T] | 3.36 |
| YPSYKVREKIETVKYPTYPEAEP [K23P] | 3.88 |
| YPSYKVREKIETVKYPTYPEAEF [K23F] | 3.68 |
| YPSYKVREKIETVKYPTYPEAEV [K23V] | 3.4 |
| YPSYKVREKIETVKYPTYPEAEY [K23Y] | 2.9 |
| YPSYKVREKIETVKYPTYPEAEC [K23C] | 3.19 |
| YPSYKVREKIETVKYPTYPEAEQ [K23Q] | 4.04 |
| YPSYKVREKIETVKYPTYPEAEH [K23H] | 4.15 |
| YPSYKVREKIETVKYPTYPEAEA [K23A] | 2.92 |
| YPSYKVREKIETVKYPTYPEAEM [K23M] | 2.94 |
| YPSYKVREKIETVKYPTYKEAEK [P19K] | 4.19 |
| YPSYKVREKIETVKYPTYSEAEK [P19S] | 3.94 |
| YPSYKVREKIETVKYPTYCEAEK [P19C] | 3 |
| YPSYKVREKIETVKYPTYYEAEK [P19Y] | 1.25 |
| YPSYKVREKIETVKYPTYAEAEK [P19A] | 3.79 |
| YPSYKVREKIETVKYPTYNEAEK [P19N] | 4.11 |
| YPSYKVREKIETVKYPTYMEAEK [P19M] | 3.04 |

| Variant | protein stability index |
| --- | --- |
| YPSYKVREKIETVKYPTYIEAEK [P19I] | 3.59 |
| YPSYKVREKIETVKYPTYVEAEK [P19V] | 2.98 |
| YPSYKVREKIETVKYPTYWEAEK [P19W] | 2.37 |
| YPSYKVREKIETVKYPTYDEAEK [P19D] | 3.66 |
| YPSYKVREKIETVKYPTYEEAEK [P19E] | 4.67 |
| YPSYKVREKIETVKYPTYQEAEK [P19Q] | 3.85 |
| YPSYKVREKIETVKYPTYHEAEK [P19H] | 3.18 |
| YPSYKVREKIETVKYPTYTEAEK [P19T] | 3.45 |
| YPSYKVREKIETVKYPTYGEAEK [P19G] | 3.94 |
| YPSYKVREKIETVKYPTYFEAEK [P19F] | 2.01 |
| YPSYKVREKIETVKYPTYREAEK [P19R] | 3.71 |
| YPSYKVREKIETVKYPTYPELEK [A21L] | 3.38 |
| YPSYKVREKIETVKYPTYPEVEK [A21V] | 3.89 |
| YPSYKVREKIETVKYPTYPESEK [A21S] | 4.1 |
| YPSYKVREKIETVKYPTYPEDEK [A21D] | 4.34 |
| YPSYKVREKIETVKYPTYPEPEK [A21P] | 4.04 |
| YPSYKVREKIETVKYPTYPENEK [A21N] | 3.45 |
| YPSYKVREKIETVKYPTYPEIEK [A21I] | 3.85 |
| YPSYKVREKIETVKYPTYPEEEK [A21E] | 4.97 |
| YPSYKVREKIETVKYPTYPEMEK [A21M] | 4.7 |
| YPSYKVREKIETVKYPTYPECEK [A21C] | 3.74 |
| YPSYKVREKIETVKYPTYPEREK [A21R] | 3.43 |
| YPSYKVREKIETVKYPTYPEGEK [A21G] | 4.29 |
| YPSYKVREKIETVKYPTYPETEK [A21T] | 3.67 |

| Variant | protein stability index |
| --- | --- |
| YPSYKVREKIETVKYPTYPEFEK [A21F] | 4.18 |
| YPSYKVREKIETVKYPTYPEKEK [A21K] | 3.26 |
| YPSYKVREKIETVKYPTYPEWEK [A21W] | 4.21 |
| YPSYKVREKIETVKYPTYPEYEK [A21Y] | 3.67 |
| YPSYKVREKIETVKYPTYPEHEK [A21H] | 4.56 |
| YPSYKVREKIETVKYPTQPEAEK [Y18Q] | 4.54 |
| YPSYKVREKIETVKYPTEPEAEK [Y18E] | 4.65 |
| YPSYKVREKIETVKYPTAPEAEK [Y18A] | 4.08 |
| YPSYKVREKIETVKYPTRPEAEK [Y18R] | 5.1 |
| YPSYKVREKIETVKYPTNPEAEK [Y18N] | 4.63 |
| YPSYKVREKIETVKYPTTPEAEK [Y18T] | 4.7 |
| YPSYKVREKIETVKYPTLPEAEK [Y18L] | 3.87 |
| YPSYKVREKIETVKYPTHPEAEK [Y18H] | 4.31 |
| YPSYKVREKIETVKYPTDPEAEK [Y18D] | 4.47 |
| YPSYKVREKIETVKYPTPPEAEK [Y18P] | 5.06 |
| YPSYKVREKIETVKYPTFPEAEK [Y18F] | 3.89 |
| YPSYKVREKIETVKYPTIPEAEK [Y18I] | 3.96 |
| YPSYKVREKIETVKYPTSPEAEK [Y18S] | 4.68 |
| YPSYKVREKIETVKYPTWPEAEK [Y18W] | 3.63 |
| YPSYKVREKIETVKYPTMPEAEK [Y18M] | 4.15 |
| YPSYKVREKIETVKYPTKPEAEK [Y18K] | 2.85 |
| YPSYKVREKIETVKYPTCPEAEK [Y18C] | 4.98 |
| YPSYKVREKIETVKYPTGPEAEK [Y18G] | 3.52 |
| YPSYKVREKIETVKYPTVPEAEK [Y18V] | 4.24 |

Source: the supplement of paper PMC10567573
